In IntAct's records for PubMed 10026153:

B1: Tyrosine-protein kinase CSK (Homo sapiens), P41240 (parent)
chain: MSAIQAAWPSGTECIAKYNFHGTAEQDLPFCKGDVLTIVAVTKDPNWYKAKNKVGREGIIPANYVQKREGVKAGTKLSLMPWFHGKITREQAERLLYPPETGLFLVRESTNYPGDYTLCVSCDGKVEHYRIMYHASKLSIDEEVYFENLMQLVEHYTSDADGLCTRLIKPKVMEGTVAAQDEFYRSGWALNMKELKLLQTIGKGEFGDVMLGDYRGNKVAVKCIKNDATAQAFLAEASVMTQLRHSNLVQLLGVIVEEKGGLYIVTEYMAKGSLVDYLRSRGRSVLGGDCLLKFSLDVCEAMEYLEGNNFVHRDLAARNVLVSEDNVAKVSDFGLTKEASSTQDTGKLPVKWTAPEALREKKFSTKSDVWSFGILLWEIYSFGRVPYPRIPLKDVVPRVEKGYKMDAPDGCPPAVYEVMKNCWHLDAAMRPSFLQLREQLEHIKTHELHL

Variants of: B1
Details: with igf1r_human IGF1R

effect of a mutation on the interaction | Variant
disrupting interaction strength | S109C
